Consider one molecule from doi:10.1101/2024.03.12.584565 (bioRxiv, 2024).

The test addresses T1, Flag-tagged Pds5b-Ser1161,1166Ala (2A), phosphorylated by Nek2a in vitro (human, UniProt Q9NTI5 1-1447, Ser1161,1166Ala | Ser1161,1166Ala).
T1 sequence: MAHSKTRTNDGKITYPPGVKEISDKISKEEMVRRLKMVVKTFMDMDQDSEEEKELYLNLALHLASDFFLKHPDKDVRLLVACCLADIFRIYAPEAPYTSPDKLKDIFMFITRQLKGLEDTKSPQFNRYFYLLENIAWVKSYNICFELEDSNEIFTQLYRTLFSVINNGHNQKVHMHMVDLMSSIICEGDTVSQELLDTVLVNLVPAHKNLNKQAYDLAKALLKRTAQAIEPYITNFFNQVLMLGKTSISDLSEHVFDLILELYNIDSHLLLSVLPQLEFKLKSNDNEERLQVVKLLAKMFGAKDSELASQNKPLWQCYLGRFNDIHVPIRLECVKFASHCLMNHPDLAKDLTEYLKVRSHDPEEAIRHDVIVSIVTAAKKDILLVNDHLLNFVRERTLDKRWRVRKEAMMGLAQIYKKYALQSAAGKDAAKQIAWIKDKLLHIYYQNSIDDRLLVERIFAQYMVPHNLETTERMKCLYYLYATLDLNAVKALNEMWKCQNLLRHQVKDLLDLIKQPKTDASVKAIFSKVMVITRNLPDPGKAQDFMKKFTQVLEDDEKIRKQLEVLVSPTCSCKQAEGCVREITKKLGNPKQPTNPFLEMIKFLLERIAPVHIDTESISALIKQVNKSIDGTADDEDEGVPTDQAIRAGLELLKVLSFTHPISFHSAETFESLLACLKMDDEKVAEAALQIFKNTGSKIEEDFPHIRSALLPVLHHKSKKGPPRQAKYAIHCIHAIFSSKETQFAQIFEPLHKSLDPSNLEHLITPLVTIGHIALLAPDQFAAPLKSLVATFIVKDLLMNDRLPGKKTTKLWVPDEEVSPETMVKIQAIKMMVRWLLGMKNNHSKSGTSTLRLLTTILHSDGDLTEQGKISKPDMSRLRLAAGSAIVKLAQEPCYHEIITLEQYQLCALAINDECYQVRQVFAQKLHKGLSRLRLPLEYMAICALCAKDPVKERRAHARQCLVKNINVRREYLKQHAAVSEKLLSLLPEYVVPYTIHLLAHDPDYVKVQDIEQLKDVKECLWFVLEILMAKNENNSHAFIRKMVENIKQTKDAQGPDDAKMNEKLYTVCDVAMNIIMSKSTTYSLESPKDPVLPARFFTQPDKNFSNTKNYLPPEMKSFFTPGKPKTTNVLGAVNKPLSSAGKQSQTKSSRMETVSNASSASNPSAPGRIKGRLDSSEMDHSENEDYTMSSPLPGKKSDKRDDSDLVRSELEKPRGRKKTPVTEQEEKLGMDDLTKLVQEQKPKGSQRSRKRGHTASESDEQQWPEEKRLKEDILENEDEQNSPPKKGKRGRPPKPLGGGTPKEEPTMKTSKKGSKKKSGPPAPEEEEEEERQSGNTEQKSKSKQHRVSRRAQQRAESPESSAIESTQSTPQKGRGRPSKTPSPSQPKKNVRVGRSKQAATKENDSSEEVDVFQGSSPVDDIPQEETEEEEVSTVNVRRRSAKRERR
Briefly: pull-down.

B1: recombinant human Wapl (natural protein)
chain: MTSRFGKTYSRKGGNGSSKFDEVFSNKRTTLSTKWGETTFMAKLGQKRPNFKPDIQEIPKKPKVEEESTGDPFGFDSDDESLPVSSKNLAQVKCSSYSESSEAAQLEEVTSVLEANSKISHVVVEDTVVSDKCFPLEDTLLGKEKSTNRIVEDDASISSCNKLITSDKVENFHEEHEKNSHHIHKNADDSTKKPNAETTVASEIKETNDTWNSQFGKRPESPSEISPIKGSVRTGLFEWDNDFEDIRSEDCILSLDSDPLLEMKDDDFKNRLENLNEAIEEDIVQSVLRPTNCRTYCRANKTKSSQGASNFDKLMDGTSQALAKANSESSKDGLNQAKKGGVSCGTSFRGTVGRTRDYTVLHPSCLSVCNVTIQDTMERSMDEFTASTPADLGEAGRLRKKADIATSKTTTRFRPSNTKSKKDVKLEFFGFEDHETGGDEGGSGSSNYKIKYFGFDDLSESEDDEDDDCQVERKTSKKRTKTAPSPSLQPPPESNDNSQDSQSGTNNAENLDFTEDLPGVPESVKKPINKQGDKSKENTRKIFSGPKRSPTKAVYNARHWNHPDSEELPGPPVVKPQSVTVRLSSKEPNQKDDGVFKAPAPPSKVIKTVTIPTQPYQDIVTALKCRREDKELYTVVQHVKHFNDVVEFGENQEFTDDIEYLLSGLKSTQPLNTRCLSVISLATKCAMPSFRMHLRAHGMVAMVFKTLDDSQHHQNLSLCTAALMYILSRDRLNMDLDRASLDLMIRLLELEQDASSAKLLNEKDMNKIKEKIRRLCETVHNKHLDLENITTGHLAMETLLSLTSKRAGDWFKEELRLLGGLDHIVDKVKECVDHLSRDEDEEKLVASLWGAERCLRVLESVTVHNPENQSYLIAYKDSQLIVSSAKALQHCEELIQQYNRAEDSICLADSKPLPHQNVTNHVGKAVEDCMRAIIGVLLNLTNDNEWGSTKTGEQDGLIGTALNCVLQVPKYLPQEQRFDIRVLGLGLLINLVEYSARNRHCLVNMETSCSFDSSICSGEGDDSLRIGGQVHAVQALVQLFLERERAAQLAESKTDELIKDAPTTQHDKSGEWQETSGEIQWVSTEKTDGTEEKHKKEEEDEELDLNKALQHAGKHMEDCIVASYTALLLGCLCQESPINVTTVREYLPEGDFSIMTEMLKKFLSFMNLTCAVGTTGQKSISRVIEYLEHC
As to B1, the binding result is reported as “binds”.
